Seven molecules from US20210347873A1 (SHANGHAI PHARMAEXPLORER, published 2021) can be followed below.

Assay [1] deals with T1, biotinylated hBLyS-ECD (human, UniProt Q9Y275 134-285, biotinylated with Biotin-X-X-NHS (molar ratio 7:1), sites not stated).
T1 construct: The hBLyS-ECD of Embodiment 1 after biotinylation (Embodiment 2); also called biotinylated immunogen; BLyS protein; not shown: His tag of the pCPC vector
In words: ELISA, biotinylated hBLyS-ECD captured on streptavidin; antibody 0.534 nM. As for the experimental part:
(§1) Streptavidin was first diluted to a final concentration of 1.0 μg/mL with PBS, and then 50 μL of diluted streptavidin per well was aliquoted into 96-well ELISA plate, which was subsequently sealed with plastic film and incubated at 4° C. overnight. On the next day the plate was washed four times with the plate washing buffer [PBS buffer containing 0.05% (v/v) Tween20] and added with the blocking solution [PBS buffer containing 0.05% (v/v) Tween20 and 1% (w/w) BSA] and blocked for 2 hours at 37° C. The blocking solution was removed, the biotinylated hBLyS-ECD prepared in Embodiment 2 was diluted with PBS to a final concentration of 50 ng/mL and then aliquoted into the 96-well ELISA plate at 50 μL per well and incubated for 1 hour at 37° C. After rinsing the plate four times with the plate washing buffer [PBS buffer containing 0.05% (v/v) Tween20], 100 μl of the purified lead antibody harvested in Embodiment 1 and 2 was pipetted into each well. After incubation for 1 hour at 37° C., the plate was rinsed four times with the plate washing buffer [PBS buffer containing 0.05% (v/v) Tween20]. HRP-labeled (horseradish peroxidase) secondary antibody (purchased from Sigma) was added in and incubated at 37° C. for 1 hour. The plate was then rinsed four times with the plate washing buffer [PBS buffer containing 0.05% (v/v) Tween20]. 100 μL of TMB substrate was aliquoted into each well and after incubation for 5 minutes at room temperature, 100 μL of stop solution (1.0 N HCl) was aliquoted into each well. A₄₅₀ₙₘ values were read via an ELISA plate reader (SpectraMax M5e purchased from Molecular Devices) and the results were shown in FIGS. 5A-5B and Table 10.
On the technique in general: An ELISA detects its analyte on a solid surface through an enzyme-linked reagent.

Assay [2] has as its target T1, biotinylated hBLyS-ECD. Kind of assay: ELISA, biotinylated hBLyS-ECD captured on streptavidin; antibody 66.7 nM. As for the experimental part: as §1
The target in assay [3] is T2, human BLyS (full length, arginine 132 mutated to histidine) on CHO-K1 cells (human, UniProt Q9Y275 1-285).
T2 construct: also called hBLyS; CHO-K1 hBLyS
T2 sequence (Q9Y275 other isoform, or with tags, fused parts or gaps limits assumed, change not shown): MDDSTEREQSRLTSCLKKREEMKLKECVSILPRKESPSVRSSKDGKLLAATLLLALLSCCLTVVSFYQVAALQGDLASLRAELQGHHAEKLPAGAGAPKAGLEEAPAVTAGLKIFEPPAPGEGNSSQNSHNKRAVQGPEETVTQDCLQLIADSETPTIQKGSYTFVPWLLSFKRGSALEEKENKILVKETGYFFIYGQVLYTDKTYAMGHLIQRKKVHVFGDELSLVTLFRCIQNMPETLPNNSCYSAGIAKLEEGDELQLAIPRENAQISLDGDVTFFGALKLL
Kind of assay: flow cytometry (FACS) on CHO-K1 hBLyS cells, Alexa 488 secondary antibody. (In flow cytometry, cells or beads pass a laser one at a time.)

Assay [4] deals with T3, biotinylated hBLyS-ECD (human, UniProt Q9Y275 134-285, biotinylated with Biotin-X-X-NHS (molar ratio 7:1); sites not stated).
T3 construct: also called biotinylated immunogen; BLyS protein
T3 sequence (Q9Y275 134-285): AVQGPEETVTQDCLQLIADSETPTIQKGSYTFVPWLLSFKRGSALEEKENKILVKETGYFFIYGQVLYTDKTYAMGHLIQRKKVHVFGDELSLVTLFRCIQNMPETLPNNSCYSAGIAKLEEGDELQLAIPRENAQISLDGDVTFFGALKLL
Kind of assay: competitive ELISA on biotinylated hBLyS-ECD; competitor L9G7. As for the experimental part:
(§2) The purified human BLyS antibody and hybridoma antibody were subjected to competitive enzyme-linked immunosorbent assay and the epitopes binding by different antibodies were analyzed.
(§3) Purified BLyS antibody was first diluted to a final concentration of 1.0 μg/mL with PBS, then aliquoted into a 96-well ELISA plate at 50 μL per well, and the plate was subsequently sealed with plastic film and incubated at 4° C. overnight. On the next day the plate was rinsed four times with the plate washing buffer [PBS buffer containing 0.05% (v/v) Tween20] and mixed with blocking solution [PBS buffer containing 0.05% (v/v) Tween20 and 1% (w/w) BSA], and then blocked at 37° C. for 1 hour. The blocking solution was removed, and the competitive antibody and IgG control were diluted to a final concentration of 40 μg/mL with PBS and then aliquoted into the 96-well ELISA plate at 50 μL per well. The biotinylated hBLyS-ECD was then diluted with PBS to a final concentration of 2 ng/mL and pipetted into the 96-well ELISA plate at 50 μL per well. The final concentration of competitive antibody and hBLyS-ECD was 20 μg/mL and 1 ng/mL, respectively. After incubation at 37° C. for 1 hour, the plate was rinsed four times with the plate washing buffer [PBS buffer containing 0.05% (v/v) Tween20]. 100 μL per well of HRP-labeled (horseradish peroxidase) streptavidin (purchased from Sigma) was added into the plate and the plate was incubated at 37° C. for 1 hour. The plate was then washed four times with the plate washing buffer [PBS buffer containing 0.05% (v/v) Tween20]. 100 μL of TMB substrate was aliquoted into each well and after incubation at room temperature for 5 minutes, 100 μL of stop solution (1.0 N HCl) was aliquoted into each well. A₄₅₀ₙₘ values were read by an ELISA plate reader (SpectraMax M5e, purchased from Molecular Device) and the results were shown in Tables 18A-18B. […] The data shown in the table is the inhibitory rate (%) of the binding level of the original antibody to hBLyS-ECD after addition of the competitive antibody.

The target of assay [5] is T3, biotinylated hBLyS-ECD. In words: competitive ELISA on biotinylated hBLyS-ECD; competitor 2-1G11. As for the experimental part:
as §2, §3

T1 sequence (Q9Y275 134-285): as above

B1: 111D10D6G3 (antibody, V domains shown)
VH: QVQLQQPGAELVKPGASVKMSCKASGYTFTRHWITWVKQRPGQGLEWIGDIFPGSGSINYNEKFKSEATLTVEKSSSTAYMQLSSLTSEDSAVYYCARGDVDVWGTGTTVTVSS
VL: DIQMTQSPSSLSASLGERVSLTCRASQEIRGYLSWLQQKPNGTIKRLIYAASTLDSGVPKRFSATRSGSDFSLTISSLESEDFADYYCLQYASYPFTFGSGTKLEIK
notes: Mouse hybridoma antibody purified on Protein G
Regarding B1, the OD450 nm turned out to be 1.41 with biotinylated hBLyS-ECD [1] and 1.94 with biotinylated hBLyS-ECD [2]. Moreover, the half-maximal effective concentration (EC50 (read off the curve)) in assay [3] is about 0.1 nM.

B2: 2-1G11 (antibody, V domains shown)
VH: EVQLVESRGGVVQPGRSLRLSCAASGFTFSSYGMHWVRQAPGKGLEWVAVISYDGSNKYYADSVKGRFTISRDNSKNTLYLQMNSLRAEDAAVYYCARDRVDILTGYSIYGMDVWGQGTTVTVSS
VL: EIVMTQSPATLSLSPGERATLSCRASQSVSSYLAWYQQKPGQAPRLLIYDASKRATGIPARFSGSGSGTDFTLTISSLEPEDFAVYYCQQRSNWPLTFGGGTKVEIK
notes: From a human naive scFv phage library; also called human BLyS antibody 2-1G11
As for B2, the “inhibitory rate (%)” value with biotinylated hBLyS-ECD [4] was found to be 79%; with biotinylated hBLyS-ECD [5], 82%.

B3: L9G7 (antibody, human IgG1, V domains shown)
VH: QIQLVQSGAEVKKPGASVKVSCKASGYTFTSYGISWVRQAPGQGLEWMGWISAYNGNTNYAQKLQGRVTMTTDTSTSTAYMELRSLRSDDTAVYYCARTYYDILTGYYYYGMDVWGQGTTVTVSS
VL: EIVLTQSPGTLSLSPGERATLSCRTSQSVDTYLAWYQQKPGQAPRLLIYDASNRATGIPARFSGSGSGTDFTLTISSLEPEDFAVYYCQQRSNWPLTFGGGTKVEIK
B3: the OD450 nm with biotinylated hBLyS-ECD [1] turned out to be 1.35; in the assay with biotinylated hBLyS-ECD [2], 1.81. Also, the “EC50 (read off the curve)” value in assay [3] was about 0.3 nM.

B4: L9G7 (antibody, V domains shown)
VH: QIQLVQSGAEVKKPGASVKVSCKASGYTFTSYGISWVRQAPGQGLEWMGWISAYNGNTNYAQKLQGRVTMTTDTSTSTAYMELRSLRSDDTAVYYCARTYYDILTGYYYYGMDVWGQGTTVTVSS
VL: EIVLTQSPGTLSLSPGERATLSCRTSQSVDTYLAWYQQKPGQAPRLLIYDASNRATGIPARFSGSGSGTDFTLTISSLEPEDFAVYYCQQRSNWPLTFGGGTKVEIK
notes: From a human naive scFv phage library; also called human BLyS antibody L9G7
Regarding B4, the “inhibitory rate (%)” value with biotinylated hBLyS-ECD [4] came to 95%; with biotinylated hBLyS-ECD [5] it was 96%.

B5: L1D12 (antibody, V domains shown)
VH: QVQLVQSGGGLVQPGGSLRLSCAASGFTVSSNYMSWVRQAPGKGLEWVSVIYSGGSTYYADSVKGRFTISRDNSKNTLYLQMNSLRAEDTAVYYCARGFHDILTGYGMDVWGQGTTVTVSS
VL: SSELTQDPAVSVALGQTVRITCQGDSLRNYYAGWYQQKPGQAPVLVIYGKNNRPSGIPDRFSGSSSGNTASLTITGTQAEDEADYYCSSRDNSGTHLVEFGGGTKLTVL
notes: From a human naive scFv phage library; also called human BLyS antibody L1D12; LID12
In the case of B5, the “inhibitory rate (%)” value with biotinylated hBLyS-ECD [4] worked out at 90%; with biotinylated hBLyS-ECD [5], 94%.

B6: L1D12 (antibody, human IgG1, V domains shown)
VH: QVQLVQSGGGLVQPGGSLRLSCAASGFTVSSNYMSWVRQAPGKGLEWVSVIYSGGSTYYADSVKGRFTISRDNSKNTLYLQMNSLRAEDTAVYYCARGFHDILTGYGMDVWGQGTTVTVSS
VL: SSELTQDPAVSVALGQTVRITCQGDSLRNYYAGWYQQKPGQAPVLVIYGKNNRPSGIPDRFSGSSSGNTASLTITGTQAEDEADYYCSSRDNSGTHLVEFGGGTKLTVL
notes: also called LID12
On to B6, for which the OD450 nm is 1.5 with biotinylated hBLyS-ECD [1] and 1.75 in the assay with biotinylated hBLyS-ECD [2]. In assay [3], the half-maximal effective concentration (EC50 (read off the curve)) is about 0.2 nM.

B7: 97A3C2H4 (antibody, V domains shown)
VH: EVKLVESGGGLVQPGGSLKLSCAASGFTFSTYTMSWVRQTPEKRLEWVAYISYGGGSTSYPDTVKGRFTISRDNAKNTLYLQMSSLKSEDTAIYYCTRHVTVVENSMDYWGQGTSVTVSS
VL: DILLTQSPDILSVSPGERVSFSCRASQSIGTSIHWYQQRTNGSPRLLIKYVSESFSGTPSRFSGSGSGTAFTLTINSVESEDIADYYCQQTHSWPWTFGGGTKLEIK
notes: as for B1
Turning to B7, the OD450 nm was 2.12 with biotinylated hBLyS-ECD [1] and 2.98 with biotinylated hBLyS-ECD [2]. For the same molecule, in assay [3], the “EC50 (read off the curve)” value is about 0.3 nM.

By EC50 (read off the curve) is commonly meant the midpoint of the concentration-response curve.
